Experiments:
[1] = molecular target: T1, SOX2 (Homo sapiens, UniProt P48431); assay: Biotinylated enhancer pull down from nuclear extract, western blot and mass spectrometry; type: binding; details: for SOX2 enrichment (mass spectrometry): normalised to random sequence 599
T1 construct: endogenous in cells; host or cells: nuclear extract of GSC7 and GSC328 (patient-derived glioblastoma stem cell lines)
Experimental: The oligo was PCR-amplified using biotinylated primers. The PCR product was then SPRI purified to remove biotinylated primer dimers. These dsDNA fragments were incubated with nuclear extract from GSC7 and GSC328. They were then bound to streptavidin magnetic beads, washed three times and the frozen beads were sent for mass spectrometry analysis.
All the buffers were prepared the day before, passed through a […] filter (except the dialysis buffer) and left at 4° C. overnight. DTT and protease inhibitors were added just before use. The cells were scraped on the media and collected on 50 ml falcons, which were spun at 1350 rcf 5 minutes at 4° C. The pellet was resuspended in 50 ml of ice cold PBS, an aliquot was taken for cell counting, and spun again spun at 1350 rcf 5 minutes at 4° C. The pellet was then resuspended in 5 ml per 40 million cells of ice cold buffer A (10 mM HEPES pH 7.9, 1.5 mM MgCl2, 10 mM KCl, 0.5 mM DTT, protease inhibitors (Complete, Roche, 11697498001)) and incubated on ice for 10 min. The cell suspension was transferred to a glass Dounce homogenizer and dounced 40 times on ice. The cell suspension was transferred to a falcon and centrifuged at 1350 rcf for 10 min at 4° C. The supernatant was discarded (cytosolic extract) and the pellet resuspended in 100 μl per 10 million cells in ice cold buffer B (20 mM HEPES pH 7.9, 5% glycerol, 1 M NaCl, 1.5 mM MgCl2, 0.2 mM EDTA pH 8.0, 0.5 mM DTT, protease inhibitors (Complete, Roche, 11697498001)). The suspension was rotated for 30 minutes at 4° C. and transferred into a dialysis membrane (SnakeSkin, Thermo Scientific, Cat 68100). Dialysis was carried out in 500 ml of dialysis buffer (20 mM HEPES pH 7.9, 5% glycerol, 100 mM KCl, 0.83 mM EDTA pH 8.0, 1.66 mM DTT, protease inhibitors (Complete, Roche, 11697498001)) for two hours at 4° C. with rotation. Dialysis buffer was changed (500 ml) and the dialysis was continued overnight at 4° C. […] The supernatant was collected into new 1.5 ml tubes and quantified (Pierce BCA Protein Assay Kit, Thermo Scientific, Cat 23225). […]

[2] = molecular target: T2, SOX9 (Homo sapiens, UniProt P48436); assay: Biotinylated enhancer pull down from nuclear extract, SOX9 detection; type: binding; details: random DNA 599 as negative control
T2 construct: These dsDNA fragments were incubated with nuclear extract from GSC7 and GSC328; endogenous in cells; host or cells: nuclear extract of GSC7 and/or GSC328 (patient-derived glioblastoma stem cell lines)
T2 sequence (P48436 1-509): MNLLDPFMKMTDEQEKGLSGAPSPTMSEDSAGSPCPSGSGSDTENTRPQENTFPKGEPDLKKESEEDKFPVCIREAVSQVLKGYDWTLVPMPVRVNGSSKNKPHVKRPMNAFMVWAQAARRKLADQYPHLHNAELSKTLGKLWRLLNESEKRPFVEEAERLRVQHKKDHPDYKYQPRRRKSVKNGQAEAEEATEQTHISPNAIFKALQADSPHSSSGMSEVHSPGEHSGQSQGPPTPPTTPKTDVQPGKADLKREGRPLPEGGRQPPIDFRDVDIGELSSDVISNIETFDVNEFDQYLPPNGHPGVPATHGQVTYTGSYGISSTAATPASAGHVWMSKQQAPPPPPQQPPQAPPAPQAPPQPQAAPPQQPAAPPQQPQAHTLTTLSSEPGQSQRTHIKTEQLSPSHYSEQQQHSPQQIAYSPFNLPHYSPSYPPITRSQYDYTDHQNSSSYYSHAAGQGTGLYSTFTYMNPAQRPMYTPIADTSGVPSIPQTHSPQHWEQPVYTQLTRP
Experimental: All the buffers were prepared the day before, passed through a 22 μm filter (except the dialysis buffer) and left at 4° C. overnight. DTT and protease inhibitors were added just before use. […] The cell suspension was transferred to a glass Dounce homogenizer and dounced 40 times on ice. […] Dialysis buffer was changed (500 ml) and the dialysis was continued overnight at 4° C. The extract was collected in an 1.5 ml tube and spun at maximum speed for 15 min at 4° C. […] 100 μg aliquots were flash frozen in liquid nitrogen and stored at −80° C.
Enhancers were amplified with 5′ biotinylated primers (Table 5) using PrimeStar Max (Takara) according to the manufacturer's instructions.
Streptavidin Magnetic Bead (NEB, S1420S) were used according to the manufacturer's instructions. […]
Next, we aimed to confirm that indeed SOX2 and SOX9 are binding to the enhancer and the SOX dimer motif. […] To filter for transcription factors a list of all transcription factors was obtained from UniProt and overlapped with the detected proteins in both cell lines.

T1 sequence (P48431 whole entry): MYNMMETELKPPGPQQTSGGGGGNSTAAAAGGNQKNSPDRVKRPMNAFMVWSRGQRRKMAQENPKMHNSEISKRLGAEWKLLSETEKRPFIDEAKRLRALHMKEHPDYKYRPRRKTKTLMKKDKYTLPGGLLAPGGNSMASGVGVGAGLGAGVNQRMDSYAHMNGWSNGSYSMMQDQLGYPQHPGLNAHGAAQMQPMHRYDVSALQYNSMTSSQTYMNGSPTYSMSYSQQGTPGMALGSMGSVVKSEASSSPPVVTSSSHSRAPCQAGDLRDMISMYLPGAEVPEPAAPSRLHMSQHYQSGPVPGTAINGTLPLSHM

B1: ID1101: enhancer fragment, SEQ ID NO: 4 (nucleic acid)
DNA: GTGAGTGTGACTCACATGCTGGCATCAGAGCCCCTCTTAGAGCTTAGAACACTGGGCCTCTGTCAGGCAAAGAAAAGGAGTCCCTATGAATAGCCATCTCCACAAATAGCAGTTACTGTCACTTCTTAAAAGACACAAGCATGGCTGGAGACCGGCACTG
SOX2 enrichment (mass spectrometry) ([1]; G7 nuclear extract): 4.4 fold | SOX2 pull down ([1]; GSC7 and GSC328): pulled down specifically | SOX2 enrichment (mass spectrometry) ([1]; GSC328 nuclear extract): 23 fold | SOX9 interaction [2]: selectively interacts

Source: patent publication US20260241035A1, “FUNCTIONAL NUCLEIC ACID MOLECULE AND METHOD” (THE UNIVERSITY COURT OF THE UNIVERSITY OF EDINBURGH, priority 2022, published 2026)
